Among the data in patent EP4669352A1 (dated 2025) are binding result and Kd values, retold here.

Experiment [1] addresses T1, H3 protein (vaccinia virus, UniProt P07240 1-278).
T1 sequence: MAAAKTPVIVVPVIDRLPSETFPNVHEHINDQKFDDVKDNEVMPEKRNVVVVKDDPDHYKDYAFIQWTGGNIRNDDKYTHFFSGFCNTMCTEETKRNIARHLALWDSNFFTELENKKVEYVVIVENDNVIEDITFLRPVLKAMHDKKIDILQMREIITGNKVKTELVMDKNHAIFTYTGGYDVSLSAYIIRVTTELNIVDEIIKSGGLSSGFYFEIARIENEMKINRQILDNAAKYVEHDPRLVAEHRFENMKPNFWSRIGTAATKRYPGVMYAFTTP
Briefly: ELISA on recombinant protein. On the technique in general: An ELISA detects its analyte on a solid surface through an enzyme-linked reagent.

Experiment [2] deals with T2, VACV A33 recombinant protein (vaccinia virus, UniProt P68616 89-185).
The target of a further experiment is T3, L1 protein (vaccinia virus, UniProt P07612 1-183).
T3 sequence: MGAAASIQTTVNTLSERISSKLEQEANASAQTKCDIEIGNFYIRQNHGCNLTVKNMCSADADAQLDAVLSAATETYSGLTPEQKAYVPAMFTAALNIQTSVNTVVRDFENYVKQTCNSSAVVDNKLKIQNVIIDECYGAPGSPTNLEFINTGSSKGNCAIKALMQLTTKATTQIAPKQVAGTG
Kind of experiment: ELISA on recombinant VACV surface proteins.

The target of experiment [3] is T1, H3 protein. Kind of experiment: ELISA on recombinant VACV surface proteins.
For a further experiment, the target named is B5 protein (vaccinia virus, UniProt Q01227 18-279). Kind of experiment: ELISA on recombinant VACV surface proteins.
For a further experiment, the target named is T4, A27 protein (vaccinia virus, UniProt P11258 1-110).
T4 sequence: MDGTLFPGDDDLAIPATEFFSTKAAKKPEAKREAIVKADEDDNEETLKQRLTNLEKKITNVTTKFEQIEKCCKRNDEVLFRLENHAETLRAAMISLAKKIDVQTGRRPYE
Kind of experiment: ELISA on recombinant VACV surface proteins.

Experiment [4] has as its target T2, VACV A33 recombinant protein. Kind of experiment: ELISA on recombinant VACV surface proteins.

B1: MV26 (antibody, V domains shown)
VH: EVQLAESGGGLVQPGGSLRLSCAASGFTFSNYWMYWFRQAPGKGLEWVSSISGSRRNIHYSDSVRGRFTVSRDNAKSTLSLQMNSLRPEDTAVYYCAREGETSTFYFGYWGQGVLVTASS
VL: KPMLTQPPSVSVSPGQTARITCGGDNLGTKNVQWYQQKSAQAPVVVIYDDGERPSGIPERFSGSKSGNVATLTISGVEAGDDADYYCQVWDGSSDHPIFGRGTRLTVL
Regarding B1, in the experiment with H3 protein [1], the binding result is listed as “binds”.

B2: MV31 (antibody, V domains shown)
VH: EVQLAESGGGLVPPDGSLRLSCTASGFTFSNYWMYWFRQAPGKGLEWVASISGSRRNIDYSDSVKGRFTISRDNAKNTLFLQMNRLRGDDTAVYYCAREGETSTYFFDPWGQGVLVTASS
VL: QPVLTQPPTVSKSLGQSVTISCTGTSSDVGGYNYVSWYQQRPGKAPKLLIYEVTKRPSGVSDRFSGSKSGNTASLTISGLQAEDEADYYCSSYTTSNTYIFGTGTRLTVL
In the case of B2, the binding result with H3 protein [1] was “binds”.

B3: MV7 (antibody, V domains shown)
VH: QEQLVQSGGGLAKPGGSLRISCAASGFVFSRSAMHWVRQAPGKGLEWVSGISGGGATYYADSVKGRFTISRDNSKNTFSLQMNSLRLEDTAVYYCAKDRRRSVASSYFDSWGQGVLVTVSS
VL: QSVLTQPQSVSVSPGQTARISCGGDNIGSKNVHWYQQKPPQAPVLVIYAGTERPSGIPERFSGSNSGNTATLTISGVEAGDEADYYCQVWDGTREHVLFGGGTRLTVL
On to B3, for which the binding result with H3 protein [1] is recorded as “binds”.

B4: EV42 (antibody, V domains shown)
VH: EVQLVESGPRLVKPSETLSLTCAVSGASITSNYWSWIRQPPGKGLEWIGRTPGSSGSTDYNPSLKSRVTISTDTSKNQFSLKLTSVTAADTAVYFCARRYTDSYYLYYFDFWSQGVLVTVSS
VL: QSALTQPPSVSGSPGQSVTISCTGTNSDIGSYKYVSWYQKHPGKAPKLVIYDVSQRPSGVSDRFSGSKSGNTASLTISGLQAEDEADYYCSSYAGINTFNVFGSGTKLTIL
In general, Kd refers to the free concentration of one partner at which half of the binding sites on the other are occupied at equilibrium, for simple one-to-one binding. On to B4, for which, in experiment [2], the Kd was 0.095 nM.

B5: EV4 (antibody, V domains shown)
VH: QVQLQESGPGLVKPSETLSLTCAVSGGSISNNYWSWVRQAPGKGLEWIGRIYGSSGSSSYNPSLTGRLTISRDTSKNQLSLRLNSMTAADTAFYYCVRQYFGPRGAFDFWGQGLRVTVSS
VL: QPGLTQSPSASEAARKSVTISCSGSSSNIGSNSVSWYQQLPETAPKLLVYYNDRRASSVSDRFSGSKSGTSASLAISGLQTEDEADYYCAAWDNSLSGYVFGAGTRLTVL
For B5, the binding result (with L1 protein; with H3 protein [3]; with B5 protein; with A27 protein; in experiment [4]) was “no binding” each time.
